Assay results taken from doi:10.1101/2020.03.20.000893 (bioRxiv, 2020).

Target: the molecule itself
Test: crystal structure

B1: K2P2.1_(cryst), engineered mouse K2P2.1 (TREK-1) (domain or fragment, UniProt P97438-2 21-322, looked up)
chain: SFSSKPTVLASRVESDSAINVMKWKTVSTIFLVVVLYLIIGATVFKALEQPQEISQRTTIVIQREKFLRAHPCVSDQELDELIQQIVAAINAGIIPLGASSNQVSHWDLGSSFFFAGTVITTIGFGNISPRTEGGKIFCIIYALLGIPLFGFLLAGVGDQLGTIFGKGIAKVEDTFIKWNVSQTKIRIISTIIFILFGCVLFVALPAVIFKHIEGWSALDAIYFVVITLTTIGFGDYVAGGSDIEYLDFYKPVVWFWILVGLAYFAAVLSMIGDWLRVIAKKTKEAVGEFRAHAAEWTANVT
binding result: binds
